In US6828136B2, “Esterase enzymes, DNA encoding esterase enzymes and vectors and host cells incorporating same” (Genencor International, Inc., priority 1996, dated 2004):
Like-named read-outs stand apart in the source and are kept apart here.

How the values were obtained:
[1] = biological target: 38 kD esterase (Aspergillus awamori, UniProt Q9P979); test: API-20 enzyme test strip, substrate specificity for 38 kD esterase (Table 2); assay type: biochemical, Aspergillus niger; conditions: API-20 strip
Description: Purified 38 kD esterase was analyzed for a variety of biochemical activities with an API-20 enzyme test strip (BioMerieux Vitek) according to the manufacturers instructions. […] “+++” indicates very strong response, “++” indicates strong response and “+” indicates activity shown towards substrate. “−” means no activity detected.

[2] = substrate: COc1cc(/C=C/C(=O)OC[C@@H]2O[C@@H](O[C@H]3[C@H](O)COC(O)[C@@H]3O)[C@H](O)[C@H]2O)ccc1O; test: purified protein, by the assay type; conditions: other: substrate of purified 38 kD esterase
[3] = substrate: COC(=O)/C=C/c1ccc(O)c(OC)c1; test: purified protein, by the assay type; conditions: other: substrate of purified 38 kD esterase
[4] = substrate: COc1cc(/C=C/C(=O)OC[C@@H]2O[C@@H](O[C@@H]3[C@@H](O)[C@H](O[C@@H]4COC(O)[C@H](O)[C@H]4O)OC[C@H]3O)[C@H](O)[C@H]2O)ccc1O; test: purified protein, by the assay type; conditions: other: substrate of purified 38 kD esterase
[5] = substrate: COc1cc(/C=C/C(=O)OC[C@@H]2O[C@@H](O[C@@H]3[C@@H](O)[C@H](O[C@@H]4COC(O)[C@H](O)[C@H]4O)OC[C@H]3O[C@@H]3OC[C@@H](O)[C@H](O)[C@H]3O)[C@H](O)[C@H]2O)ccc1O; test: purified protein, by the assay type; conditions: other: substrate of purified 38 kD esterase
[6] = pH and temperature optimum of 38 kD esterase activity on methyl ferulate; assay type: biochemical; conditions: for maximal activity: methyl ferulate
Description: The enzyme sample was chromatographed by hydrophobic interaction chromatography (Poros® HPEM phenyl ether, Perseptive BioSystems, perfusion chromatography, […]). The column was connected to a BioCad® Perfusion Chromatography Workstation (Perseptive BioSystems) and equilibrated with 5 column volumes Tris-HCl (50 mM, pH 7.4) plus 1.2 M ammonium sulfate. The sample (205 ml) was applied to the column and separated at a flow rate of 30 ml/min with a linear gradient from 1.2 M to 200 mM ammonium sulfate over 20 column volumes. […] Four fractions eluting at 750 mM ammonium sulfate contained 83% of the starting FAE activity. Active fractions were pooled (60 ml), dialysed by ultrafiltration into start buffer for next chromatographic step (10 kDa membrane, 20L of 25 mM sodium acetate buffer pH 5.0). The sample was concentrated to 10 ml in preparation for ion exchange chromatography.
(§1) The 38 kD esterase isolated according to Example 1 was analyzed for biochemical properties. […] When the 38 kD esterase was incubated in buffer for 30 minutes without substrate at pH 5.1, the temperature optima was 55° C.

[7] = Activity of purified 38 kD esterase toward natural and synthetic substrates (in words); assay type: biochemical; conditions: purified enzyme
Description: as §1

[8] = Isoelectric point by isoelectric focusing (IEF) gel; assay type: physicochemical
Description: Upon native PAGE of a desalted active fraction from HPSEC a single protein band was observed, The isolelectric point of the FAE was determined using Phast gel Dry IEF equilibrated with a solution ampholyte, (20% final concentration, containing a mix of pI 2-4, 80%, pI 3-10 20%) Glycerol (10%) for 1 hour. Separation was performed as per manufacturers recommendation (Pharmacia Biotechnology, Dry IEF instruction bulletin) and stained with coomassie R-250. The sample migrated as a single protein band with an isolelectric point of about 2.8.

[9] = from A. niger CBS120.49 grown on oat spelt xylan; cited from earlier work
[10] = from A. niger CBS120.49; cited from earlier work

## OC[C@H]1O[C@@H](Oc2ccc3ccccc3c2)[C@H](O)[C@@H](O)[C@H]1O [2-naphthyl-βD-galactopyranoside]
[1]; pH 5.4
  Activity: (++)

## CCCCCCCC(=O)Oc1ccc2ccccc2c1 [2-naphthyl caprylate]
[1]; pH 7.5
  Activity: (++)

## O=P(O)(O)Oc1ccc2ccccc2c1 [2-naphthyl phosphate]
[1]; pH 5.4
  Activity: (+)

## OC[C@H]1O[C@@H](Oc2ccc3cc(Br)ccc3c2)[C@H](O)[C@@H](O)[C@@H]1O [6-Br-2-naphthyl-βD-glucopyranoside]
[1]; pH 5.4
  Activity: (+++)

## OC[C@H]1O[C@H](Oc2ccc3cc(Br)ccc3c2)[C@H](O)[C@@H](O)[C@H]1O [6-Br-2-naphthyl-αD-galactopyranoside]
[1]; pH 5.4
  Activity: (+++)

## COc1ccccc1NC(=O)c1cc2cc(Br)ccc2cc1OP(=O)(O)O [Naphthol-AS-BI-phosphate]
[1]; pH 5.4
  Activity: (++)

## CCCC(=O)Oc1ccc2ccccc2c1 [2-naphthyl butyrate]
[1]; pH 6.5
  Activity: (+++)

## CCCCCCCCCCCCCC(=O)Oc1ccc2ccccc2c1 [2-naphthyl myristate]
[1]; pH 7.5
  Activity: (+)

## OC[C@H]1O[C@H](Oc2ccc3ccccc3c2)[C@H](O)[C@@H](O)[C@@H]1O [2-naphthyl-αD-glucopyranoside]
[1]; pH 5.4
  Activity: (+)

B1: 38 kD esterase (Aspergillus awamori) (protein)
chain: ASTQGISEDLYSRLVEMATISQAAYADLCNIPSTIIKGEKIYNSQTDINGWILRDDSSKEIITVFRGTGSDTNLQLDTNYTLTPFDTLPQCNGCEVHGGYYIGWVSVQDQVESLVKQQVSQYPDYALTVTGHSLGASLAALTAAQLSATYDNIRLYTFGEPRSGNQAFASYMNDAFQASSPDTTQYFRVTHANDGIPNLPPVEQGYAHGGVEYWSVDPYSAQNTFVCTGDEVQCCEAQGGQGVNNAHTTYFGMTSGACTW
[2]
  Km: 78 µM
  Vmax: 276 µmol/min/mg
[3]
  Km: 2080 µM
  Vmax: 87 µmol/min/mg
[4]
  Km: 19 µM
  Vmax: 498 µmol/min/mg
[5]
  Km: 52 µM
  Vmax: 307 µmol/min/mg

B2: 38 kD esterase: esterase derived from Aspergillus niger, about 38 kD on SDS-PAGE, amino acid sequence SEQ. ID NO:28 (protein)
chain: MKQFSAKHVLAVVVTAGHALAASTQGISEDLYSRLVEMATISQAAYADLCNIPSTIIKGEKIYNSQTDINGWILRDDSSKEIITVFRGTGSDTNLQLDTNYTLTPFDTLPQCNGCEVHGGYYIGWVSVQDQVESLVKQQVSQYPDYALTVTGHSLGASLAALTAAQLSATYDNIRLYTFGEPRSGNQAFASYMNDAFQASSPDTTQYFRVTHANDGIPNLPPVEQGYAHGGVEYWSVDPYSAQNTFVCTGDEVQCCEAQGGQGVNNAHTTYFGMTSGACTW
[6]; 250 μM methyl ferulate present
  temperature optimum: 65 °C
[6]; pH 3
  maximal activity: 83%
[6]; pH 8
  maximal activity: 25%
[7]
  activity toward natural feruloyl and p-coumaroyl esters, cell walls of wheat bran and sugar beet pulp, wheat flour, pentosan fraction, ethyl and methyl esters of ferulic and p-coumaric acid: active
[8]
  pI (isoelectric point): about 2.8

B3: FAE-III: ferulic acid esterase isolated from Aspergillus niger CBS 120.49 (Faulds et al.) (protein, UniProt O42807 22-281, looked up)
Feruloyl esterase A: ASTQGISEDLYNRLVEMATISQAAYADLCNIPSTIIKGEKIYNAQTDINGWILRDDTSKEIITVFRGTGSDTNLQLDTNYTLTPFDTLPQCNDCEVHGGYYIGWISVQDQVESLVKQQASQYPDYALTVTGHSLGASMAALTAAQLSATYDNVRLYTFGEPRSGNQAFASYMNDAFQVSSPETTQYFRVTHSNDGIPNLPPADEGYAHGGVEYWSVDPYSAQNTFVCTGDEVQCCEAQGGQGVNDAHTTYFGMTSGACTW
[9]
  pI: 3.3
[10]
  pH optimum: 5
  temperature optimum: 55-60 °C
